± gives the uncertainty stated by the source.
Experiment: protein stability index of a GFP-peptide fusion (yeast GPS) (PSI 1-4); higher = more stable; sorted into four equal gates, so the index is relative within each strain
Method in brief: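 Tiled yeast protein peptides of 17 residues were each joined downstream of GFP, on plasmids that also express Cherry. The pooled library was maintained in yeast, and mid-log cultures in leucine-free medium were sorted into four equal gates on the GFP/Cherry ratio. Plasmids from every gate were amplified by PCR and sequenced on Illumina, with barcodes linking reads to strains. The protein stability index of a peptide is its gate-number-weighted read frequency summed over the gates.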

Sequence | protein stability index (doa10∆) | protein stability index (pdr5∆) | protein stability index (san1∆) | protein stability index (ubr1∆)
QTRKEYNTSILEFRWLT [SIN4] | 1.74 ± 0.073 | 1.74 ± 0.059 | 1.83 ± 0.093 | 2.42 ± 0.098
DRQIINEKMQLLKDIFA [SIR4] | 2.25 ± 0.042 | 2.64 ± 0.054 | 2.31 ± 0.058 | 1.92 ± 0.047
DENGTNSAIANEQEEKS [RPC37] | 2.65 ± 0.083 | 2.83 ± 0.1 | 2.74 ± 0.047 | 3.07 ± 0.051
KIFIKDPKFVNSLLAKL [YML103C/NUP188] | 2.25 ± 0.14 | 2.25 ± 0.063 | 1.72 ± 0.1 | 2.39 ± 0.068
SKSLQESGDTQEEDEEE [RPC82] | 3.5 ± 0.19 | 3.48 ± 0.15 | 3.29 ± 0.08 | 3.48 ± 0.12
NAARKAEASGEAADEAD [RPS9A] | 3.29 ± 0.24 | 3.03 ± 0.29 |  | 3.47 ± 0.11
EVVEAVTVVDTPPVVVV [RPL3] | 1.36 ± 0.05 | 1.67 ± 0.05 | 1.48 ± 0.095 | 1.47 ± 0.036
KESEISHNENKMDFSSK [YIL149C/MLP2] | 2.99 ± 0.086 | 3 ± 0.093 | 3.16 ± 0.086 | 3.19 ± 0.24
IKKPKTYKYPSLKGVDP [RPL29] | 3.63 ± 0.29 | 3.62 ± 0.2 |  | 
ADDADIEMKDVSSKPSK [MED1] | 3.17 ± 0.1 | 3.29 ± 0.11 | 2.95 ± 0.065 | 3.26 ± 0.066
NLLCYYNLRSLNLINAK [RPN3] | 1.48 ± 0.049 | 1.71 ± 0.06 | 1.36 ± 0.12 | 1.25 ± 0.041
KRRFGELMDRTGLKLYS [RPP1] | 2.21 ± 0.18 | 2.98 ± 0.12 | 2.23 ± 0.11 | 2.45 ± 0.11
SSLFQEKLLETNVSKQN [ECM29] | 2.74 ± 0.11 | 2.55 ± 0.1 | 2.35 ± 0.065 | 2.52 ± 0.071
SYQKAWDLLQSGSQNIS [RPN12] | 1.18 ± 0.096 | 1.11 ± 0.084 | 1.2 ± 0.13 | 1.08 ± 0.14
VEINSSESDLDEDKNFP [ESC2] | 2.99 ± 0.063 | 2.66 ± 0.056 | 3.25 ± 0.052 | 3.16 ± 0.057
SSLVRSCGEEEFFSTNW [REC8] | 3.49 ± 0.23 | 3.52 ± 0.18 |  | 3.18 ± 0.2
SKDELREKLAEVYKAEK [RPS24A] | 3.51 ± 0.16 | 3.48 ± 0.15 | 3.59 ± 0.08 | 3.56 ± 0.16
TYEMRIHKRYIDLEAPV [RPS20] | 2.17 ± 0.16 | 2.71 ± 0.15 |  | 2.51 ± 0.28
TSVQEKELMLQSKKLIE [YIL149C/MLP2] | 2.65 ± 0.089 | 2.94 ± 0.096 | 2.84 ± 0.084 | 2.91 ± 0.063
EMIRGRSPEEIRRTFNI [SKP1] |  |  |  | 2.34 ± 0.28
RMLSSILDINVSSSKNK [SWP82] | 2.71 ± 0.051 | 2.9 ± 0.051 | 2.49 ± 0.059 | 2.61 ± 0.032
DSNKTLLHNHLKSIESL [SMC2] | 1.87 ± 0.089 | 2.44 ± 0.095 | 1.49 ± 0.22 | 2.78 ± 0.11
HLGCVPIGEAGDFGGWF [RIP1] | 2.81 ± 0.12 | 3.08 ± 0.11 | 2.7 ± 0.11 | 3.06 ± 0.14
IVKRLYEYGAVSVLLIS [BRR2] | 2.57 ± 0.061 | 2.39 ± 0.055 | 2.24 ± 0.099 | 1.64 ± 0.054
MVAYSPIIATYGNRAEQ [SRP68] | 2.18 ± 0.085 | 2.54 ± 0.059 | 2.7 ± 0.082 | 2.78 ± 0.073
AGAGEANGTVVSFIKNG [MTR3] | 1.79 ± 0.16 | 2.53 ± 0.2 |  | 2.21 ± 0.11
NDPNAAVNMTQNIMTLP [MED6] | 2.97 ± 0.14 | 2.95 ± 0.089 | 2.71 ± 0.08 | 3.11 ± 0.059

Sequence | protein stability index (doa10∆) | protein stability index (pdr5∆) | protein stability index (san1∆) | protein stability index (ubr1∆)
VPTKIARGTIEIVSDVK [RPP0] | 2.26 ± 0.25 | 2.38 ± 0.055 | 2 ± 0.17 | 
NLMGNRNNHNSNTSTSK [SNF12] | 3 ± 0.073 | 3.17 ± 0.096 | 2.92 ± 0.12 | 3.07 ± 0.054
SLIKETNQLVLLQKMLN [YML103C/NUP188] |  | 1.29 ± 0.094 | 1.06 ± 0.096 | 1.02 ± 0.077
DKQYRTAVATLLKELSK [SMC3] | 2.49 ± 0.082 | 2.13 ± 0.084 | 3.06 ± 0.061 | 2.72 ± 0.071
YDRKKLPRKEVDDVLGG [RPC11] | 3.2 ± 0.1 | 3.64 ± 0.14 | 3.29 ± 0.065 | 3.32 ± 0.099
VVNDLVGEKLVVVVLEE [SIR3] | 3.42 ± 0.076 | 3.18 ± 0.067 | 3.42 ± 0.042 | 3.53 ± 0.081
DSSSQCIVDFTNPKLKS [YMR129W/POM152] | 2.2 ± 0.053 | 2.43 ± 0.058 | 2.33 ± 0.072 | 1.96 ± 0.044
DINVESLTQSVCDLALR [PUP2] | 1.52 ± 0.1 | 1.91 ± 0.067 | 1.67 ± 0.18 | 1.93 ± 0.037
SGHFSTDSRTGQSTILV [CDC53] | 2.83 ± 0.047 | 2.8 ± 0.052 | 3.05 ± 0.038 | 3.11 ± 0.042
QQQQQQQQQQQQQGQIP [SNF5] | 2.729 ± 0.023 | 2.79 ± 0.023 | 2.75 ± 0.022 | 2.826 ± 0.02
GGQIAHILFQNNPDMMI [ROX3] | 2.54 ± 0.041 | 2.63 ± 0.046 | 2.59 ± 0.052 | 2.97 ± 0.046
FPPNLEKGENPSCVYNL [UBP6] | 2.79 ± 0.1 | 1.7 ± 0.088 | 1.15 ± 0.16 | 1.11 ± 0.064
GMIYNKLFVSKEHAPYT [FAS2] | 3.12 ± 0.091 | 2.2 ± 0.092 | 2.24 ± 0.17 | 2.41 ± 0.1
RYADAGNIDTKNNILGS [RRP43] | 3.31 ± 0.062 | 3.06 ± 0.05 | 3.12 ± 0.039 | 3.04 ± 0.049
KKASKVTVDADIDDILK [ISW2] | 2.75 ± 0.081 | 3.18 ± 0.065 | 3 ± 0.058 | 3.1 ± 0.046
VKAAINFSNVTDLTNNS [YIL149C/MLP2] | 2.49 ± 0.044 | 3.11 ± 0.049 | 3.35 ± 0.04 | 2.62 ± 0.04
FLGYKAGMTTIVRDLDR [RPL3] | 2.48 ± 0.12 | 3.17 ± 0.18 | 2.93 ± 0.078 | 3.14 ± 0.1
SFQKNSLHNTEKIMENK [AAR2] | 3.08 ± 0.057 | 3.22 ± 0.066 | 2.93 ± 0.042 | 2.96 ± 0.049
VSVLLISKDCSAFACKT [BRR2] | 1.96 ± 0.052 | 2.27 ± 0.042 | 2.21 ± 0.064 | 2.17 ± 0.049
ETSGVTTALLKDEEIEK [MED8] | 3.2 ± 0.097 | 3.05 ± 0.18 | 2.84 ± 0.17 | 3.63 ± 0.11
IPSSYIKRTDEGGEAEF [ARP7] | 3.4 ± 0.16 | 3.14 ± 0.1 | 3.16 ± 0.11 | 3.45 ± 0.051
KTFEIKEIKTNEYVIKT [YMR129W/POM152] | 2.58 ± 0.1 | 2.25 ± 0.089 | 1.92 ± 0.091 | 2.02 ± 0.047
SSEQFNVWDWNNWTSAT [GAL11] | 3.08 ± 0.1 | 3.17 ± 0.095 | 3.14 ± 0.067 | 3.1 ± 0.083
KWQTLIEANVTVKTSDD [RPS1A] | 1.42 ± 0.05 | 1.62 ± 0.044 | 1.61 ± 0.078 | 1.67 ± 0.037
LALMTAHSLSPKDYIKK [CDC53] | 3.1 ± 0.06 | 3.03 ± 0.059 | 3.25 ± 0.04 | 3.15 ± 0.052
NVIITGSTSLIEGMEQR [ARP7] | 1.75 ± 0.06 | 2.49 ± 0.075 | 2.27 ± 0.065 | 2.13 ± 0.077

— the supplement of paper PMC9732359
